{
  "source": "paper PMC11948038",
  "about": "“Evolutionary Pro‐To‐Thr Mutation in the Intrinsically Disordered Domain of ANP32 Family Members Modulates Their Target Binding Modes” (Advanced Science, 2025)",
  "key": {"[1]": {"molecular_target": "T1, cytochrome c (Homo sapiens, UniProt P99999)", "T1 construct": "obtained by immunizing male rabbits with full-length recombinant Cc; made in house; host or cells: E. coli BL21 (DE3)", "T1 sequence (P99999 whole entry)": "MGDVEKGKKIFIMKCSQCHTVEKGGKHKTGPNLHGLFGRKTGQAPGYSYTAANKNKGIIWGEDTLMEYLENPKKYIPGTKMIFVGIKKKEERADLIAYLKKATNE", "conditions": "Cc-ANP32B, low ionic strength; ref [31]; cited from earlier work", "description": "Although both ANP32A and ANP32B interact with Cc via their C‐terminal region, there are remarkable differences in the thermodynamic parameters and binding surfaces between full‐length ANP32A and ANP32B in complex with Cc (Figure 3C,F).^[ [31] ^] […] These di ..."}, "[2]": {"test_system": "histone H3", "assay": "Coimmunoprecipitation of c-myc-ANP32A/B with histone H3", "format": "binding", "conditions": "anti-c-myc, Western blot; representative of three experiments", "protocol": "HEK293T cells were transfected with a plasmid encoding ANP32A/b-c-myc. 24 h after transfection, cells were collected for lysates preparation in buffer containing 20 mM Tris-HCl pH 7.5, 100 mM NaCl, 0.5% NP40, 0.1 mM PMSF and cOmplete™. Cells were lysed by sonication and precleared by incubation with sepharose-A beads (GE Healthcare, GE17-5280-01) for 1 h at 4 °C. The lysates were then incubated with anti-c-myc (see Pull-down assays) over night at 4 °C and subsequently with sepharose-A beads (GE Healthcare, GE17-5280-01) for 1 h at room temperature with rotation. Following 6 washes with PBS, the samples were resuspended in SDS loading buffer and analyzed by western blotting."}, "[3]": {"molecular_target": "T1, cytochrome c", "assay": "ITC titration of full-length ANP32A or ANP32A1-167 with reduced Cc", "format": "binding", "conditions": "low ionic strength (25 mM)", "protocol": "Isothermal titration calorimetry (ITC) experiments were performed using a Nano ITC Low Volume instrument (TA Instruments, USA). The reference cell was filled with distilled water. Titration experiments between reduced Cc and ANP32A or ANP32A1‐167 consisted of 17 injections of 2.91 µL of a 400 µM reduced Cc solution into the sample cell containing 50 µM ANP32A construct. Both Cc and ANP32A proteins were dialyzed against 10 mM sodium phosphate buffer pH 7.4. Assays performed at moderate ionic strength used the same experimental setup, but proteins were dialyzed against 20 mM sodium phosphate pH 7.4 with 50 mM NaCl. […] ANP32A, ANP32A230‐249 and ANP32B232‐251 titration data were analyzed using Origin 7.0 (OriginLab), employing a single‐ligand binding site model or a two‐ligand binding sites model. […] ANP32A1‐167 titration data was processed and analyzed using NanoAnalyze software (TA instruments).\nITC experiments were performed using a Nano ITC Low Volume instrument (TA Instruments, USA). […] ANP32A, ANP32A230-249 and ANP32B232-251 titration data was analyzed using Origin 7.0 (OriginLab), employing a single ligand binding site model or a two ligand binding sites model. […] ANP32A1-167 titration data were processed and analyzed using NanoAnalyze software (TA instruments)."}, "[4]": {"test_system": "15N-labeled Cc", "assay": "NMR titration (1H-15N HSQC) of 15N Cc with ANP32A or ANP32A1-167", "format": "binding", "conditions": "low ionic strength; 25 °C", "protocol": "NMR titrations of 30 µM ^15N reduced Cc with ^14N ANP32A constructs were followed by 1D ^1H and 2D ^1H-^15N heteronuclear single quantum correlation (HSQC) spectra on a Bruker Avance-III 600 MHz equipped with a cryoprobe at 25 °C. ^15N-labelled reduced Cc (in 10 mM sodium phosphate buffer, pH 7.4) was titrated with increasing amounts of ^14N ANP32A dialyzed against the same buffer. Reduced ^15N Cc and ^14N ANP32A1-167 construct were titrated in 5 mM sodium phosphate buffer pH 6.4. To maintain the redox state of Cc and to adjust the lock signal on the NMR spectrometer, 0.1 mM of sodium ascorbate and 10% of D2O were added, respectively. Data were acquired and processed using TopSpin NMR 3.5pl7 software (Bruker).\nLine broadening and chemical-shift perturbation analysis were performed using the Sparky 3 NMR assignment tool (T.D. Goddard and D.G. Kneller, University of California San Francisco, USA). Assignment of ANP32A230-249 and ANP32B232-251 peptides was performed using NMRFAM-SPARKY software distribution (National Magnetic Resonance Facility at Madison) and further imported to CCPNMR ^[1], whereby distance restraints were calculated using its built-in module."}},
  "data": [
    {"molecule": "ANP32B: acidic leucine‐rich nuclear phosphoprotein 32 B, histone chaperone, paralog of ANP32A (protein, UniProt Q92688 1-251, looked up) Acidic leucine-rich nuclear …: MDMKRRIHLELRNRTPAAVRELVLDNCKSNDGKIEGLTAEFVNLEFLSLINVGLISVSNLPKLPKLKKLELSENRIFGGLDMLAEKLPNLTHLNLSGNKLKDISTLEPLKKLECLKSLDLFNCEVTNLNDYRESVFKLLPQLTYLDGYDREDQEAPDSDAEVDGVDEEEEDEEGEDEEDEDDEDGEEEEFDEEDDEDEDVEGDEDDDEVSEEEEEFGLDEEDEDEDEDEEEEEGGKGEKRKRETDDEGEDD", "values": [
      {"measurement": "Kd", "setting": "[1]", "result": "~9.5", "unit": "µM"},
      {"measurement": "–TΔS", "setting": "[1]", "result": 3.9, "unit": "kcal/mol"},
      {"measurement": "coimmunoprecipitation of histone H3, in words", "setting": "[2]", "result": "H3 binds both ANP32 proteins in a similar manner"}
    ]},
    {"molecule": "ANP32A1‐167: ANP32A construct lacking its LCAR (protein) MEMGRRIHLELRNRTPSDVKELVLDNSRSNEGKLEGLTDEFEELEFLSTINVGLTSIANLPKLNKLKKLELSDNRVSGGLEVLAEKCPNLTHLNLSGNKIKDLSTIEPLKKLENLKSLDLFNCEVTNLNDYRENVFKLLPQLTYLDGYDRDDKEAPDSDAEGYVEGL", "values": [
      {"measurement": "binding to Cc by ITC, in words", "setting": "[3]", "result": "unable to interact with Cc even at low ionic strength"},
      {"measurement": "chemical-shift perturbations of Cc amide signals, in words", "setting": "[4]", "result": "no significant chemical‐shift perturbations"}
    ]}
  ]
}
